Literature values as cited in PMC10539808.

Target: Lys66 (UniProt position 148, FTKKMKENAKK)
Conditions: not stated (quoted literature value; no ligand mentioned)

Staphylococcal nuclease (SNase), Delta+PHS/V66K variant (Staphylococcus aureus; P117G;H124L;S128A;del44-49;G50F;V51N;V66K)
pKa: 5.7 and ∼ 5.6
